# Assay results reported in patent US20250287954A1, “METHOD AND COMPOSITION OF SYNERGISTIC INSECTICIDAL MIXTURES” (priority 2022, published 2025).
# B1: sct1: Scott protein, ~20 kDa, extracellular secreted hypothetical protein of MBI-203, SEQ ID NO: 1 (protein, listed as Chromobacterium subtsugae)
# chain: MSLTTDFLENPQAFMRSQAILIPAQVPPGNGKYQFAAQGAHAAVLQSTAASPNIPGFYAHPVANNINLFVLPTQQPARYYMFTDGMNGCQFLAYGPDRQHITVEHNNFIGDPTRYAARLAEVVALKPAYLLHISPSGVNNIPAGQYNSQQGVNIVGEYGQANGWRFWVRDRVDQNQGTVYGPL
# System: Cabbage Loopers
# Assay: Cabbage looper diet overlay bioassay (mortality at 4 days after treatment)
# Assay type: in vivo
# Description: Insecticidal bioassay: Activity against Cabbage Loopers was tested on Diet Overlay Bioassays. The appropriate artificial insect diet was dispensed into each well of a standard 96 well plate and allowed to dry. Once the diet solidified, 100 μL of the treatment was pipetted into the appropriate number of wells and allowed to dry. A single 1st instar larva was delivered into each well of a 96 well plate. Mortality was scored at 4 days after treatment.
# Efficacy is expressed as percentage mortality at 4 days post treatment. Results (in duplicates) in % mortality are shown in above Table/chart.
# FIG. 6 a plot of an insecticidal bioassay results for various purified compound with and without Sct1. Previous studies have shown that the insecticidal activity present in MBI-203 whole cell broth is mainly attributed to the synergy between secondary metabolites (chromamide analogues) and protein (Sct1). However, for these studies were carried out using mixed chromamides (a mixture of four analogues) and Sct1. With an objective to determine which chromamide analogue is critical for the observed synergy, these individual compounds were purified from MBI-203 WCB, and tested as mixture and individual compounds using the chewing bioassay. All compounds were tested at 3% rate based on the concentration of each present in the MBI-203 WCB. “Chroma mix” contained the chromamides MW 860, MW 874A, MW 874B, and MW 876.
# Determination of LC50 value for MW 860 & Sct1. Based on the results from the above testing of purified compounds with & without Sct1, the LC50 for the MW 860, Chromamides MIX and Sct1 was determined. The individual pure compound and their mix were combined with Sct1 and submitted for determining the LC50 value.
# FIG. 7 a plot of the effect of variation of concentration of MW 860 & Sct1 on insecticidal activity. Dose dependent study for MW 860 & Sct1 as mixture. To determine the minimum range of concentration of both MW 860 and Sct1 needed for good insecticidal activity, different ratios of both compounds were prepared and submitted for insecticidal bioassay.
molecule,measurement,setting,value
O=C1NC(c2c[nH]c3ccc(O)cc23)=C/C1=C1\C(=O)Nc2ccccc21 [violacein],% Mortality (Cabbage Looper Assay) with sct1 (average of 4 bioassays),in vivo,3.269%
chromamide A [MW 860],mortality,"in combination with Sct1, 3% dose, Cabbage looper (CL) bioassay, two subsequent testings",92%
B1,insecticidal activity when tested individually,"tested individually, 3% rate based on concentration in MBI-203 WCB (FIG. 6)",did not show any significant activity
same,% Mortality (Cabbage Looper Assay) with sct1 (average of 4 bioassays),"with sct1, 4 days post treatment, compounds at 2% rate based on concentration in MBI-203 WCB, * samples neat (D30 1%, CSM2 2%)",1.087%
same,% Mortality (Cabbage Looper Assay) without sct1 (average of 3 bioassays),"without sct1, 4 days post treatment, compounds at 2% rate based on concentration in MBI-203 WCB, * samples neat (D30 1%, CSM2 2%)",1.087%
